From the RNAGym collection of RNA variant scans (doi:10.1093/molbev/msab373)

B1: Azoarcus group I ribozyme (parent)
chain: GUGCCUUGCGCCGGGAAACCACGCAAGGGAUGGUGUCAAAUUCGGCGAAACCUAAGCGCCCGCCCGGGCGUAUGGCAACGCCGAGCCAAGCUUCGGCGCCUGCGCCGAUGAAGGUGUAGAGACUAGACGGCACCCACCUAAGGCAAACGCUAUGGUGAAGGCAUAGUCCAGGGAGUGGCGAAAGUCACACAAACCGG

Variants of: B1
Assay: reverse-splicing fitness (ratio to wild type); higher = more active; in vitro selection; Mg2+ level not given
Method in brief: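 An in vitro group I ribozyme library with randomized positions was T7-transcribed and gel-purified. In triplicate, 10 pmol RNA in EPPS pH 7.5 was reacted with 50 pmoles of a 30-nt RNA substrate for 1 h at 37 °C across several added MgCl2 levels (1–48 mM), then stopped with EDTA. Products were reverse transcribed from a substrate-complementary primer, PCR-amplified and sequenced (HiSeq 4000). Fitness is a variant's read proportion after selection over that before, normalised to wild type.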

| Variant | reverse-splicing fitness |
| --- | --- |
| A111C A120G A145C C150A C169A U176G | 0.0054 |
| A111C A120G A145C C150G C169U U176G | 0.004 |
| A111C A120G A145C C150G C169U U176C | 0.013 |
| A111C A120G A145C C150G C169U U176A | 0.0111 |
| A111C A120C A145G C150U C169A U176G | 0.00559 |
| A111C A120C A145G C169A U176A | 0.0222 |
| A111C A120C A145G C169A U176C | 0.0284 |
| A111C A120C A145G C169A U176G | 0.0054 |
| A111C A120G A145C C150U C169A U176A | 0.0104 |
| A111C A120G A145C C150U C169A U176C | 0.011 |
| A111C A120G A145C C150U C169A U176G | 0.00455 |
| A111C A120C C150U C169U U176A | 0.0275 |
| A111C A120C C150U C169U U176C | 0.0327 |
| A111C A120C C150U C169U U176G | 0.0066 |
| A111C A120G A145G C150U C169U U176G | 0.00498 |
| A111C A120G A145G C150U C169U U176A | 0.0338 |
| A111C A120G A145G C150U C169U U176C | 0.0446 |
| A111C A120C C150G C169U U176C | 0.014 |
| A111C A120C C150G C169U U176A | 0.00759 |
| A111C A120C C150G C169U U176G | 0.00523 |
| A111C A120C A145U C150A C169A U176G | 0.0061 |

| Variant | reverse-splicing fitness |
| --- | --- |
| A111C A120C A145U C150A C169A U176C | 0.0085 |
| A111C A120C A145U C150A C169A U176A | 0.0108 |
| A111C A120C A145G C150U C169U U176A | 0.0283 |
| A111C A120C A145G C150U C169U U176C | 0.0438 |
| A111C A120C A145G C150U C169U U176G | 0.00486 |
| A111C A120C A145U C169A U176C | 0.0102 |
| A111C A120C A145U C169A U176A | 0.0135 |
| A111C A120C A145U C169A U176G | 0.00762 |
| A111C A120C A145U C150U C169A | 0.0112 |
| A111C A120C A145U C150U C169U | 0.125 |
| A111C A120C A145U C150U C169G | 0.00917 |
| A111C A120G A145U C150U C169A U176A | 0.0161 |
| A111C A120G A145U C150U C169A U176G | 0.00499 |
| A111C A120G A145U C150U C169A U176C | 0.0175 |
| A111C A120C C150U C169A U176C | 0.0142 |
| A111C A120C C150U C169A U176A | 0.0172 |
| A111C A120C C150U C169A U176G | 0.00561 |
| A111C A120G A145C C150G C169G U176A | 0.00954 |
| A111C A120G A145C C150G C169G U176C | 0.00609 |
| A111C A120G A145C C150G C169G U176G | 0.00434 |
| A111C A120C A145G U176G | 0.0393 |

| Variant | reverse-splicing fitness |
| --- | --- |
| A111C A120C A145G U176C | 0.203 |
| A111C A120C A145G U176A | 0.19 |
| A111C A120G A145C C150G U176G | 0.00301 |
| A111C A120G A145C C150G U176C | 0.0168 |
| A111C A120G A145C C150G U176A | 0.0112 |
| A111C A120G A145C C150A C169U U176C | 0.00924 |
| A111C A120G A145C C150A C169U U176A | 0.0178 |
| A111C A120G A145C C150A C169U U176G | 0.00392 |
| A111C A120C A145U C150A C169U U176C | 0.0144 |
| A111C A120C A145U C150A C169U U176G | 0.00632 |
| A111C A120C A145U C150A C169U U176A | 0.0195 |
| A111C A120C U176G | 0.0393 |
| A111C A120C U176A | 0.186 |
| A111C A120C U176C | 0.204 |
| A111C A120G A145G C150A C169U | 0.0326 |
| A111C A120G A145G C150A C169G | 0.0313 |
| A111C A120G A145G C150A C169A | 0.02 |
| A111C A120C A145U C150A U176A | 0.0359 |
| A111C A120C A145U C150A U176G | 0.00986 |
| A111C A120C A145U C150A U176C | 0.0526 |
| A111C A120G A145U C169A | 0.128 |

| Variant | reverse-splicing fitness |
| --- | --- |
| A111C A120C C150U C169G | 0.00843 |
| A111C A120C C150U C169U | 0.113 |
| A111C A120C C150U C169A | 0.0123 |
| A111C A120G A145G C150G C169A U176G | 0.00703 |
| A111C A120G A145G C150G C169A U176C | 0.0131 |
| A111C A120G A145G C150G C169A U176A | 0.0128 |
| A111C A120G A145U C150A C169U U176A | 0.0198 |
| A111C A120G A145U C150A C169U U176G | 0.0045 |
| A111C A120G A145U C150A C169U U176C | 0.0173 |
| A111C A120G A145G C169U | 0.167 |
| A111C A120G A145G C169G | 0.227 |
| A111C A120G A145G C169A | 0.123 |
| A111C A120C C169U U176A | 0.031 |
| A111C A120C C169U U176G | 0.0068 |
| A111C A120C C169U U176C | 0.0446 |
| A111C A120C C150G C169G U176C | 0.00683 |
| A111C A120C C150G C169G U176G | 0.00564 |
| A111C A120C C150G C169G U176A | 0.00796 |
| A111C A120C C150A | 0.0821 |
| A111C A120C C150U | 0.362 |
| A111C A120C C150G | 0.0496 |
